Data taken from patent publication US20110159013A1 (MERCK, published 2011).
Substitutions are numbered along the chain they refer to.

How the values were obtained:
[1] = target: amyloid β1-42 peptide (Aβ1-42); assay: cell-based or functional assay
[2] = target: T1, Aβ-derived diffusible ligands (synthetic ADDLs), soluble oligomers of amyloid β1-42; assay: solution equilibrium titration; free IgG by ELISA; GraFit
T1 construct: number of copies varies (trimer, tetramer, 12-24 mer)

[3] = target: ADDL fibril preparation (Aβ1-42 fibrils made in 10 mM hydrochloric acid); assay: as above
[4] = target: T2, amyloid beta (1-40) peptide; assay: as above
T2 construct: Residues 1-40 counted on the Aβ1-42 entry; used as monomer-like control; also called Aβ1-40; Aβ1-40 monomer

[5] = target: T3, SEC Peak 1 fraction of ADDLs (large aggregates, >50 kDa); assay: sandwich ELISA with polyclonal M90 as capture antibody; signal on SEC Peak 1 divided by signal on SEC Peak 2 of ADDLs
T3 construct: Size exclusion fraction of synthetic ADDLs; monomer, trimer, tetramer and 12-24 mers on SDS-PAGE

[6] = target: T4, tetramers of ADDLs (multi-dimensional conformation of soluble amyloid β1-42 oligomers, as defined by SDS-PAGE) (UniProt P05067 672-713); assay: recognition of ADDL species defined by SDS-PAGE (see FIG. 3)
T4 construct: domain: amyloid β1-42; It is a species within the ADDL preparation

[7] = target: T5, trimers of ADDLs (multi-dimensional conformation of soluble amyloid β1-42 oligomers, as defined by SDS-PAGE) (UniProt P05067 672-713); assay: as above
T5 construct: domain: amyloid β1-42; It is a species within the ADDL preparation

[8] = target: T6, higher molecular weight oligomers of the ADDL preparation; assay: western immunoblot of ADDLs after SDS-PAGE (column DENATURED SPECIES IDENTIFIED: HMW ADDLs)
T6 construct: also called higher molecular weight material (12-24 mer)

[9] = target: T7, biotinylated ADDLs (bADDLs), oligomers prepared from N-terminal biotinylated amyloid β1-42 (N-terminal biotin); assay: titration ELISA on streptavidin-captured 10% biotinylated ADDL
T7 construct: also called high molecular weight 10% bADDL

[10] = target: T7, biotinylated ADDLs (bADDLs), oligomers …; assay: BIACORE, bADDL as antigen, IgG1 #1
[11] = target: T7, biotinylated ADDLs (bADDLs), oligomers …; assay: BIACORE, bADDL as antigen, IgG1 #2
[12] = target: T7, biotinylated ADDLs (bADDLs), oligomers …; assay: BIACORE, bADDL as antigen, Fab

B1: murine anti-ADDL monoclonal antibody 2B4 (antibody, mouse IgG2b, V domains shown)
VH: not shown
VL: DVVMTQTPLSLPVSLGDQASISCRSSQSLVHSNGNTYLHWYLQKPGQSPKLLIYKVSNRFFGVPDRFSGSGSGTDFTLKISRVEAEDLGVYFCSQTTYVPLTFGAGTKLELK
B1 was tested. Which “IC50 (read off the curve)” value [1] did it give?
The value was roughly 100 nM.

What about the Kd [2] of the same binder?
Its Kd is 2.09 nM.

What about the Kd [3] of the same binder?
The Kd was 10.5 nM.

And the Kd [4]?
The Kd was 27.6 nM.

B2: murine anti-ADDL monoclonal antibody 5F10 (antibody, V domains shown)
VH: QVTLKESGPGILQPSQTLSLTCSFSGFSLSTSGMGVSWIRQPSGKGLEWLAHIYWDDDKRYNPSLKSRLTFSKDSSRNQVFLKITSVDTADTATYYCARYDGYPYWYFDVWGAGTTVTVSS
VL: B1 VL with D1V, V3L, F61S, S94F, T96S, Y98H
Which Kd [3] does the source give for B2 here?
Its Kd is 28.9 nM.

And the “Peak 1/Peak 2 Ratio (ELISA)” value [5]?
Its value is 18.

B3: murine anti-ADDL monoclonal antibody 2A10 (antibody, mouse IgG1, V domains shown)
VH: QVTLKESGPGILKPSQTLSLTCSFSGFSLSTSGMGVGWIRQPSGKGLEWLAHIWWDDDKYYNPSLKSQLTISKDTSRNQVFLKITSVDTADTATYYCARRSISTLVPEDYFDYWGQGTTLTVSS
VL: B1 VL with V3L, L29I, H39E, F61S, F92Y, S94F, T96G, T97S, Y98H
Does B3 bind [6]?
Result: binds

Does B3 bind [7]?
Result: binds

And the Kd [3]?
Its Kd is 6.72 nM.

Does B3 bind [8]?
Result: binds

What about the “Peak 1/Peak 2 Ratio (ELISA)” value [5] of the same binder?
Its value is 20.

B4: murine anti-ADDL monoclonal antibody 2D6 (antibody, mouse IgG1, V domains shown)
VH: B3 VH with L105V, V106I, T119I
VL: B1 VL with V3L, P12T, L29I, H39E, F61S, F92Y, S94F, T96G, T97S, Y98H
What does the source list for B4?
Kd [3]: 14.4 nM; Peak 1/Peak 2 Ratio (ELISA) [5]: 19

B5: murine anti-ADDL monoclonal antibody 4C2 (antibody, mouse IgG1, V domains shown)
VH: B3 VH with S103T, L105V, D112A
VL: B1 VL with V3L, T7S, L29I, H39E, F61S, F92Y, S94F, T96G, T97S, Y98H
Which results are given for B5?
Kd [3]: 19.2 nM; binding result [8]: binds; Peak 1/Peak 2 Ratio (ELISA) [5]: 18

B6: humanized 26D6, CDR grafted, IgG1/kappa (antibody)
heavy: not shown
light: DVVMTQSPLSLPVTPGEPASISCRASQSIVHSNGNTYLEWYLQKPGQSPQLLIYRVSNRFSGVPDRFSGSGSGTDFTLKISRVEAEDVGVYYCFQVTHVPLTFGQGTKLEIKRTVAAPSVFIFPPSDEQLKSGTASVVCLLNNFYPREAKVQWKVDNALQSGNSQESVTEQDSKDSTYSLSSTLTLSKADYEKHKVYACEVTHQGLSSPVTKSFNRGEC
Does B6 bind [9]?
Result: binds

B7: humanized 26D6, CDR grafted, IgG2m4/kappa (antibody)
heavy: QVTLKESGPTLVKPTQTLTLTCTFSGFSLSTSGMGVSWIRQPPGKALEWLAHIYWDDDKQYNPSLKSRLTITKDTSKNQVVLTMTNMDPVDTATYYCARRASSSRYDDQFDYWGQGTLVPVSSASTKGPSVFPLAPCSRSTSESTAALGCLVKDYFPEPVTVSWNSGALTSGVHTFPAVLQSSGLYSLSSVVTVTSSNFGTQTYTCNVDHKPSNTKVDKTVERKCCVECPPCPAPPVAGPSVFLFPPKPKDTLMISRTPEVTCVVVDVSQEDPEVQFNWYVDGVEVHNAKTKPREEQFNSTFRVVSVLTVLHQDWLNGKEYKCKVSNKGLPSSIEKTISKTKGQPREPQVYTLPPSREEMTKNQVSLTCLVKGFYPSDIAVEWESNGQPENNYKTTPPMLDSDGSFFLYSKLTVDKSRWQQGNVFSCSVMHEALHNHYTQKSLSLSPGK
light: B6 light
Does B7 bind [9]?
Result: binds

B8: affinity-matured humanized 20C2-1A, IgG1 (humanized A version) (antibody, V domains shown)
VH: QVTLKESGPALVKPTQTLTLTCTFSGFSLSTSGMGVGWIRQPPGKALEWLAHIWWDDDKSYNPSLKSRLTISKDTSKNQVVLTMTNMDPVDTATYYCARRQLGLRSIDAMDYWGQGTTVTVSS
VL: DVVMTQSPLSLPVTPGEPASISCRSSQSILHSNGNTYLEWYLQKPGQSPQLLIYKVSNRFSGVPDRFSGSGSGTDFTLKISRVEAEDVGVYYCFQASRVPLTFGQGTKLEIKR
notes: also called clone SJ-p2-60
For B8, which Kd [10] is on record?
The Kd was 0.075 nM.

B9: affinity-matured humanized 20C2-2A, IgG1 (humanized A version) (antibody, V domains shown)
VH: B8 VH
VL: B8 VL with S97T
notes: also called clone SJ-p1-18
With B9 as the binder, how does the Kd [10] read?
The Kd was 0.015 nM.

And the Kd [11]?
The Kd was 0.0003 nM.

B10: Fab fragment of affinity-matured humanized 20C2-18A (Fab, V domains shown)
VH: B8 VH
VL: B8 VL with F94M, A96S, R98F
Which Kd [12] does the source give for B10 here?
Its Kd is 85 nM.

B11: murine anti-ADDL monoclonal antibody 1F4 (antibody, mouse IgG1, V domains shown)
VH: DVQLVESGGGLVQPGGSRKLSCAASGFTFSSFGMHWVRQAPEKGLEWVAYISSVSSTIYYADTVKGRFTISRDNPKNTLFLQMTSLRSEDTAMYYCARSGYGSSYGYGMDYWGQGTLVTVSS
VL: B1 VL with V3L, L29I, H39E, F61S, F92Y, S94F, T96G, T97S, Y98H
Which results are given for B11?
Kd [2]: 9.24 nM; Kd [3]: 12.5 nM

B12: murine anti-ADDL monoclonal antibody 3B3 (antibody, mouse IgG1, V domains shown)
VH: DVQLVESGGGLVQPGGSRKLSCAASGFTFSSFGMHWVRQAPEKGLEWVAYISRGSSTIYYADTVKGRFTISRDNPKNTLFLQMTSLRSEDTAMYYCARGITTALDYWGQGTSVTVSS
VL: DVLMTQTPLSLPVSLGDQASISCRSSQSIVHSNGNTYLEWYLQKPGQSPKLLIYKASNRFSGVPDRFSGSGSGTDFTLKISRVEAEDLGVYYCFQGSHVPPTFGGGTKLEIK
For B12, which Kd [3] is on record?
The Kd was 7.21 nM.

B13: humanized 3B3, CDR grafted, IgG1/kappa (antibody, V domains shown)
VH: EVQLVESGGGLVQPGGSLRLSCAASGFTFSSFGMHWVRQAPGKGLEWVAYISRGSSTIYYADTVKGRFTISRDNAKNSLYLQMNSLRAEDTAVYYCARGITTALDYWGQGTLVTVSS
VL: B8 VL with L30V, V56A, A96G, R98H, L101P
notes: also called 3B3 (humanized)
Does B13 bind [9]?
Result: binds

B14: humanized 4E2, CDR grafted, IgG1/kappa (antibody, V domains shown)
VH: QVTLKESGPALVKPTQTLTLTCTFSGFSLSTSGMGVGWIRQPPGKALEWLAHIWWDDDKYYNPSLKSQLTISKDTSKNQVVLTMTNMDPVDTATYYCARRSINSVVPEDYFDYWGQGTTVTVSS
VL: B8 VL with L30V, A96G, R98H
notes: also called 4E2 (humanized)
Does B14 bind [9]?
Result: binds

B15: humanized 1F6, CDR grafted, IgG1/kappa (antibody, V domains shown)
VH: B11 VH with D1E, R18L, K19R, E42G, P75S, F80Y, T84N, S88A, M93V
VL: B8 VL with L30V, A96G, R98H
notes: also called 1F6 (humanized)
Does B15 bind [9]?
Result: binds

B16: humanized 2H4, CDR grafted, IgG1/kappa (antibody, V domains shown)
VH: EVQLVESGGGLVQPGGSLRLSCAASGFTFSSFGMHWVRQAPGKGLEWVAYIRSGSSTIYYADTVKGRFTISRDNSKNTLYLQMNSLRAEDTAVYYCARGGNYYGSSRFAYWGQGTLVTVSS
VL: DIQMTQSPSSLSASVGDRVTITCKASQDINSYLSWFQQKPGKAPKTLIYRANRFVDGVPSRFSGSGSGTDYTLTISSLQPEDFATYFCLQYDEFPLTFGGGTKVEIKR
notes: also called 2H4 (humanized)
Does B16 bind [9]?
Result: binds

B17: humanized 20C2, veneered, HCVR VenA IgG1 with veneered 20C2 LCVR Kappa (antibody, V domains shown)
VH: B8 VH with A10G, L11I, V12L, T15S, T19S, I39F, A46G, V81F, M84I
VL: B8 VL with T14S, P15L, E17D, V88L, A96G, R98L, Q105A, I111L
notes: also called 20C2 VenA
Does B17 bind [9]?
Result: binds
